Test results taken from US20240059757A1 (VIR BIOTECHNOLOGY, published 2024).
Read-outs that look alike come from different tables or passages of the source.

Tests used:
[1] = target: T1, SARS-CoV-2 RBD (residues 331-550 of spike from BetaCoV/Wuhan-Hu-1/2019, accession number MN908947) (SARS-CoV-2 Wuhan-Hu-1, UniProt P0DTC2 331-550); test: ELISA, plate coated with SARS-CoV-2 RBD; antibodies as rIgG1-LS
SARS-CoV-2 Spike protein [2] = target: T2, SARS-CoV-2 Spike protein (SARS-CoV-2 Wuhan-Hu-1, UniProt P0DTC2 14-1273); test: cell-based or functional assay
[3] = target: T3, SARS-CoV RBD (Sino Biological) (SARS-CoV, UniProt P59594 306-527); test: ELISA
[4] = target: T1, SARS-CoV-2 RBD (residues 331-550 of …); test: ELISA, plate coated with SARS-CoV-2 RBD; antibodies as rIgG1-LS; remark: listed apart in the source
[5] = target: T4, SARS-CoV-2 RBD-mouse Fc (Sino Biological) (SARS-CoV-2, UniProt P0DTC2 331-541)
[6] = target: T1, SARS-CoV-2 RBD (residues 331-550 of …); test: BLI (Octet): antibody on Protein A pins, SARS-CoV-2 RBD at 6, 1.5 and 0.4 µg/ml
[7] = target: T1, SARS-CoV-2 RBD (residues 331-550 of …)
[8] = target: T1, SARS-CoV-2 RBD (residues 331-550 of …); test: ELISA, plate coated with SARS-CoV-2 RBD, OD405nm
[9] = target: T3, SARS-CoV RBD (Sino Biological)
[10] = target: T1, SARS-CoV-2 RBD (residues 331-550 of …); remark: listed apart in the source
[11] = target: T1, SARS-CoV-2 RBD (residues 331-550 of …); remark: listed apart in the source
[12] = target: T1, SARS-CoV-2 RBD (residues 331-550 of …); remark: listed apart in the source
[13] = target: T3, SARS-CoV RBD (Sino Biological); test: BLI
[14] = target: T1, SARS-CoV-2 RBD (residues 331-550 of …); test: BLI
SARS-CoV-2 Spike protein [15] = target: T2, SARS-CoV-2 Spike protein; test: cell-based or functional assay; remark: listed apart in the source
SARS-CoV Spike protein [16] = target: T5, SARS-CoV Spike protein (SARS-CoV, UniProt P59594 14-1255); test: cell-based or functional assay
[17] = target: T3, SARS-CoV RBD (Sino Biological); remark: listed apart in the source
SARS-CoV Spike protein [18] = target: T5, SARS-CoV Spike protein
[19] = target: T3, SARS-CoV RBD (Sino Biological); test: BLI; remark: listed apart in the source
[20] = target: T1, SARS-CoV-2 RBD (residues 331-550 of …); test: BLI; remark: listed apart in the source
SARS-CoV-2 Spike protein [21] = target: T2, SARS-CoV-2 Spike protein; test: cell-based or functional assay; remark: listed apart in the source
[22] = target: T3, SARS-CoV RBD (Sino Biological); test: ELISA; remark: listed apart in the source
[23] = target: T1, SARS-CoV-2 RBD (residues 331-550 of …); test: ELISA
[24] = target: T4, SARS-CoV-2 RBD-mouse Fc (Sino …); remark: listed apart in the source
SARS-CoV Spike protein [25] = target: T5, SARS-CoV Spike protein; test: cell-based or functional assay; remark: listed apart in the source
SARS-CoV-2 Spike protein [26] = target: T2, SARS-CoV-2 Spike protein; test: cell-based or functional assay; remark: listed apart in the source
[27] = target: T3, SARS-CoV RBD (Sino Biological); remark: listed apart in the source
[28] = target: T1, SARS-CoV-2 RBD (residues 331-550 of …); remark: listed apart in the source

B1: S2D43 (antibody, V domains shown)
VH: QVTLKESGPTLVKPTQTLTLTCTFSGFSLSTSGVGVGWLRQPPGKALEWLALIYWDDDKRYSPSLKNRLTVTKDTSKNQVVLTMTNLDPVDTATYYCAHDNTLGGSSTWQSTFDYWGQGTLVTVSS
VL: QSVLTQPPSVSEAPRQRVTISCSGSNSNIGNNAVHWYQQLPGKAPKLLIYYDDLLPSGVSDRFSGSKSGTSASLAISGLQSEDEADYYCAAWDDRMNGPVFGGGTKLTVL
binding result [1]: binds

B2: S2D60 (antibody, V domains shown)
VH: EVQLVQSGPEVKKPGTSVKVSCKASGFTFMSSAVQWVRQARGQRLEWIGWIVVGSGNTNYTQKFRERVTITRDMSTSTAYMELSSLRSEDTAVYYCAAPRCSGGSCHDGFDIWGQGTMVTVSS
VL: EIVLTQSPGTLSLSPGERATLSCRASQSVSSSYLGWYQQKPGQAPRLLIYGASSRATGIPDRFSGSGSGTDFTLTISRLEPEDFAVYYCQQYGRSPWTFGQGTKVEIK
neutralization IC50 (SARS-CoV-2 Spike protein [2]): 12 ng/mL | neutralization IC80 (SARS-CoV-2 Spike protein [2]): 40 ng/mL | neutralization IC90 (SARS-CoV-2 Spike protein [2]): 84 ng/mL | neutralization IC95 (SARS-CoV-2 Spike protein [2]): 164 ng/mL | binding result [3]: no binding | EC50 (read off the curve) [4]: ~100 ng/mL

B3: S2X190 (antibody, V domains shown)
VH: EVQLVESGGGVVQPGRSLRLSCAASGFPFSTYGMHWVRQAPGKGLEWVAVIWYDGSTKYYADSVKGRFTISRDNSKNTLYLQMNSLRAEDTALYYCARVHSSGPGDEYFQHWGQGTLLTVSS
VL: DIVMTQSPSSLSASVGDRVTITCRASQGISSGLAWYQQKPGKGPKVLIYDASSLESGVPSRFSGSASGTDFTLTISSLQPEDFATYFCQQFYSYPLTFGGGTKVEIK
IC50 [5]: 0.02 µg/mL | Kd [6]: 0.923 nM

B4: S2X200 (antibody, V domains shown)
VH: EVHLVESGGGLIQPGGSLRLSCAASGITVSSNYMSWVRQAPGKGLEWVSVIYSGGSTFYADSVKGRFTISRDNSKNTVYLQMNSLRAEDTAVYYCARDLVTYGMDVWGQGTTVTVSS
VL: EIVLTQSPSFLSASVGDRVTITCRASQGISSYLAWYQQKPGKAPKLLIYAASTLQSGVPSRFSGSGSGTEFTLTISSLQPEDFATYYCQQLNGDPPIFGHGTRLEIK
EC50 [7]: 1.51 ng/mL

B5: S2F1 (antibody, V domains shown)
VH: EVQLLESGGGLVQPGGSLRLSCAGSGFSVSNHAMSWVRQAPGKGLEWVSAIGGSDSTTYYADSVKGRFAISRDNSKNTLYLQMNSLRADDTAIYYCAKDNYTSTWFPFDYWGQGTQVIVSS
VL: DVVMTQSPLSLPVTLGQPASISCRSSHSLVHGDGNTYLNWFQQRPGQSPRRLIHKVSNRDSGVPDRFSGSGSGTDFTLKISRVEAEDVGVYYCMQGSYWPPWTFGQGTKVEIN
binding result [8]: binds

B6: S2X259 (antibody, V domains shown)
VH: QVQLVQSGAEVKKPGSSVKVSCKASGGIFNTYTISWVRQAPGQGLEWMGRIILMSGMANYAQKIQGRVTITADKSTSTAYMELTSLRSDDTAVYYCARGFNGNYYGWGDDDAFDISGQGTLVTVYS
VL: QTVLTQPPSVSGAPGQRVTISCTGSNSNIGAGYDVHWYQQLPGTAPKLLICGNSNRPSGVPDRFSGSKSGTSASLAITGLQAEDEADYYCQSYDSSLSGPNWVFGGGTKLTVL
IC50 [9]: 10 ng/mL | IC50 [10]: 9.21 ng/mL | EC50 (read off the curve) [11]: ~7 µg/mL | EC50 [12]: 3.52 ng/mL | Kd [13]: 0.537 nM | Kd [14]: ≤ 1 pM | neutralization IC50 (SARS-CoV-2 Spike protein [15]): 0.046 µg/mL | neutralization IC50 (SARS-CoV Spike protein [16]): 0.189 µg/mL | EC50 [17]: 1.51 ng/mL | EC50 (SARS-CoV Spike protein [18]): 2.15 ng/mL | Kd [19]: 0.862 nM | Kd [20]: 0.0874 nM | neutralization IC50 (SARS-CoV-2 Spike protein [21]): 184 ng/mL | EC50 [22]: 0.0285 µg/mL | EC50 [23]: 0.0343 µg/mL | IC50 [24]: 0.0221 µg/mL | neutralization IC50 (SARS-CoV Spike protein [25]): 80.6 ng/mL | neutralization IC50 (SARS-CoV-2 Spike protein [26]): 231 ng/mL

B7: S2X259 Fab (Fab, V domains shown)
VH: B6 VH
VL: B6 VL
Kd [27]: 1.6 nM | Kd [28]: 0.08 nM
